Each block holds one binder with its values, some of them ahead of it.
Tests used:
Test in all cases: flow cytometry of diploid yeast: MFI of Flag-tagged secreted FcCH3B held on displayed FcCH3A (anti-Flag mouse mAb and PE anti-mouse antibody), normalised to EW-RVT = 100 %
[1] = target: T1, displayed FcCH3A, B135 (D399L/K409W), on yeast cell surface (human, UniProt P0DOX5 227-449 = IgG part)
T1 construct: also called B135 CH3A chain (yeast)
T1 Fc: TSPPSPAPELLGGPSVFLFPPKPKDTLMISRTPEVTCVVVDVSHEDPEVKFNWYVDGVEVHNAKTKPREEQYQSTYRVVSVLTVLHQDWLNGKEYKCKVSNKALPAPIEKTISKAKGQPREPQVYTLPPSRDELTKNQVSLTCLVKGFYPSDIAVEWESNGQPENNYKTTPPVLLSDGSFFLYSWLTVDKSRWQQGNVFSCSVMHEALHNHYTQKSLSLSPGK

[2] = target: T2, B168w/oW-VT (displayed FcCH3A on yeast cell surface)
T2 construct: also called B168w/oW-VT CH3A chain (yeast), D399L
T2 Fc: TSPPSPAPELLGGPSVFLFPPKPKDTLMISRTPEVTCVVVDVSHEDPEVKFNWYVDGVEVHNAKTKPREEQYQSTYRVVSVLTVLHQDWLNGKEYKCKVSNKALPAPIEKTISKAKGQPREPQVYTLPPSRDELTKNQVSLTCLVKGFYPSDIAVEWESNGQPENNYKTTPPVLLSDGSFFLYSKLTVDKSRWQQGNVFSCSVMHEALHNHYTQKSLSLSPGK
Excerpt: (§1) FACS was sequentially performed four times. […] Table 9 below summarizes the mutation pairs introduced into individual clones selected from the respective LibA2 and LibB2 libraries.

[3] = target: T3, displayed FcCH3A, A210 (E357A/S364Y/K370E), on yeast cell surface (human, UniProt P0DOX5 227-449 = IgG part)
T3 construct: also called A210 CH3A chain (yeast)
T3 Fc: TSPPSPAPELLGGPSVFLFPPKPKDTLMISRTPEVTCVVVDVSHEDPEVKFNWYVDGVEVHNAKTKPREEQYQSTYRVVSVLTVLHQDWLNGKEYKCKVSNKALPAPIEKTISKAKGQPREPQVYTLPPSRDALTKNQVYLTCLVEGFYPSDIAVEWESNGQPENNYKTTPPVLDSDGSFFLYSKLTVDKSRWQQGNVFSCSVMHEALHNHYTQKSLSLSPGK
Excerpt: as §1

[4] = target: T4, displayed FcCH3A, A241 (E357N/S364W/K370E), on yeast cell surface (human, UniProt P0DOX5 227-449 = IgG part)
T4 construct: also called A241 CH3A chain (yeast)
T4 Fc: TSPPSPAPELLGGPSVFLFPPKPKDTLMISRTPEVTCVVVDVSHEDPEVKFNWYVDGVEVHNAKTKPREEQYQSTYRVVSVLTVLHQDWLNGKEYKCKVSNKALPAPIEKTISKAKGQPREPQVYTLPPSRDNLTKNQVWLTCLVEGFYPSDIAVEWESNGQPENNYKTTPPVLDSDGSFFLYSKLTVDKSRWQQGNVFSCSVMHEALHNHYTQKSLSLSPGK
Excerpt: as §1

[5] = target: T5, displayed FcCH3A, A216 (E357G/S364W/K370E), on yeast cell surface (human, UniProt P0DOX5 227-449 = IgG part)
T5 construct: also called A216 CH3A chain (yeast)
T5 Fc: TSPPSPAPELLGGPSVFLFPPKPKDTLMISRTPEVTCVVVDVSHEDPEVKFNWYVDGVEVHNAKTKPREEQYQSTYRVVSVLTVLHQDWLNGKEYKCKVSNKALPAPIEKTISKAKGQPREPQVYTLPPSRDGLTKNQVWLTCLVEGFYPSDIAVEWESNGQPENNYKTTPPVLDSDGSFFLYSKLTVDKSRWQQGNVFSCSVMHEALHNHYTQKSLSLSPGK
Excerpt: as §1

[6] = target: T6, displayed FcCH3A, B168 (D399L/K409W), on yeast cell surface (human, UniProt P0DOX5 227-449 = IgG part)
T6 construct: also called B168 CH3A chain (yeast)
T6 Fc: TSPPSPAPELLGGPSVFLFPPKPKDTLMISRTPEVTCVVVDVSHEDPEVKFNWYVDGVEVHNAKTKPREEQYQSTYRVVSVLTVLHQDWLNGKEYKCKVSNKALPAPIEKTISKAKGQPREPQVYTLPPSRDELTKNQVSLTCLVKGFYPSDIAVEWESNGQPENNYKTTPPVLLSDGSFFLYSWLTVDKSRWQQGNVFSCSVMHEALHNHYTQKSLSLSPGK

[7] = target: T7, A107w/oW-VT (displayed FcCH3A on yeast cell surface)
T7 construct: also called A107w/oW-VT CH3A chain (yeast), K370E
T7 Fc: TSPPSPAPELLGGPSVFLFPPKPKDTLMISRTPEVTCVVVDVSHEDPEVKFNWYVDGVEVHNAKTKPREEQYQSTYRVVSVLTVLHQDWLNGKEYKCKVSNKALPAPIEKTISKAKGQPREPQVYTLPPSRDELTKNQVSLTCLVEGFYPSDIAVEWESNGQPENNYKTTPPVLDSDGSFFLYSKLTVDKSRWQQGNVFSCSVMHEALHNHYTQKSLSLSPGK
Excerpt: as §1

[8] = target: T8, displayed FcCH3A, B212 (K392I/D399L), on yeast cell surface (human, UniProt P0DOX5 227-449 = IgG part)
T8 construct: also called B212 CH3A chain (yeast)
T8 Fc: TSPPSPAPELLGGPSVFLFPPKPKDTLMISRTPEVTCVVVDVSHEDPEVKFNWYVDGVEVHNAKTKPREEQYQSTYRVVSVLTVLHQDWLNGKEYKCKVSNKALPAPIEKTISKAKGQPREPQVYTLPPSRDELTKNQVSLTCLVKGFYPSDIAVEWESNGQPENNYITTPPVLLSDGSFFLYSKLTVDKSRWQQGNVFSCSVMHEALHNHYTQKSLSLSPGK
Excerpt: as §1

[9] = target: T9, displayed FcCH3A, A205 (E357D/S364W/K370E), on yeast cell surface (human, UniProt P0DOX5 227-449 = IgG part)
T9 construct: also called A205 CH3A chain (yeast)
T9 Fc: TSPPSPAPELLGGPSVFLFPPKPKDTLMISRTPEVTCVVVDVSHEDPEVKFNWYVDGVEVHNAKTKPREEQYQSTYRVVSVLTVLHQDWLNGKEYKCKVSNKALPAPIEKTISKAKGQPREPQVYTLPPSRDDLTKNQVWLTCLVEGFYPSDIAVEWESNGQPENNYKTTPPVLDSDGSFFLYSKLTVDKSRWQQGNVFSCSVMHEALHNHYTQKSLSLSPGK
Excerpt: as §1

B1: secreted FcCH3B, B135 (K392S/K409L/D399V/F405T), from yeast (other)
chain: TSPPSPAPELLGGPSVFLFPPKPKDTLMISRTPEVTCVVVDVSHEDPEVKFNWYVDGVEVHNAKTKPREEQYQSTYRVVSVLTVLHQDWLNGKEYKCKVSNKALPAPIEKTISKAKGQPREPQVYTLPPSRDELTKNQVSLTCLVKGFYPSDIAVEWESNGQPENNYSTTPPVLVSDGSFTLYSLLTVDKSRWQQGNVFSCSVMHEALHNHYTQKSLSLSPGK
notes: also called B135 CH3B chain (yeast); not shown: flag-tag
- binding result [1]: binds

B2: B168w/oW-VT (secreted FcCH3B from yeast) (other)
secreted Fc chain (hinge-CH2-CH3B): TSPPSPAPELLGGPSVFLFPPKPKDTLMISRTPEVTCVVVDVSHEDPEVKFNWYVDGVEVHNAKTKPREEQYQSTYRVVSVLTVLHQDWLNGKEYKCKVSNKALPAPIEKTISKAKGQPREPQVYTLPPSRDELTKNQVSLTCLVKGFYPSDIAVEWESNGQPENNYGTTPPVLDSDGSFFLYSMLTVDKSRWQQGNVFSCSVMHEALHNHYTQKSLSLSPGK
notes: also called B168w/oW-VT CH3B chain (yeast), K392G/K409M
- binding result [2]: binds

B7: A107w/oW-VT (secreted FcCH3B from yeast) (other)
secreted Fc chain (hinge-CH2-CH3B): TSPPSPAPELLGGPSVFLFPPKPKDTLMISRTPEVTCVVVDVSHEDPEVKFNWYVDGVEVHNAKTKPREEQYQSTYRVVSVLTVLHQDWLNGKEYKCKVSNKALPAPIEKTISKAKGQPREPQVYTLPPSRDNLTKNQVSLTCLVKGFYPSDIAVEWESNGQPENNYKTTPPVLDSDGSFFLYSKLTVDKSRWQQGNVFSCSVMHEALHNHYTQKSLSLSPGK
notes: also called A107w/oW-VT CH3B chain (yeast), E357N
- binding result [7]: binds

B8: secreted FcCH3B, B212 (D399G/K392G/K409M), from yeast (other)
chain: TSPPSPAPELLGGPSVFLFPPKPKDTLMISRTPEVTCVVVDVSHEDPEVKFNWYVDGVEVHNAKTKPREEQYQSTYRVVSVLTVLHQDWLNGKEYKCKVSNKALPAPIEKTISKAKGQPREPQVYTLPPSRDELTKNQVSLTCLVKGFYPSDIAVEWESNGQPENNYGTTPPVLGSDGSFFLYSMLTVDKSRWQQGNVFSCSVMHEALHNHYTQKSLSLSPGK
notes: also called B212 CH3B chain (yeast); not shown: flag-tag
- binding result [8]: binds

B9: secreted FcCH3B, A205 (E357N/K370R), from yeast (other)
chain: TSPPSPAPELLGGPSVFLFPPKPKDTLMISRTPEVTCVVVDVSHEDPEVKFNWYVDGVEVHNAKTKPREEQYQSTYRVVSVLTVLHQDWLNGKEYKCKVSNKALPAPIEKTISKAKGQPREPQVYTLPPSRDNLTKNQVSLTCLVRGFYPSDIAVEWESNGQPENNYKTTPPVLDSDGSFFLYSKLTVDKSRWQQGNVFSCSVMHEALHNHYTQKSLSLSPGK
notes: also called A205 CH3B chain (yeast); not shown: flag-tag
- binding result [9]: binds

Now from value to binder:

- binding result [3]: binds
B3: secreted FcCH3B, A210 (E357N/K370H), from yeast (other)
chain: TSPPSPAPELLGGPSVFLFPPKPKDTLMISRTPEVTCVVVDVSHEDPEVKFNWYVDGVEVHNAKTKPREEQYQSTYRVVSVLTVLHQDWLNGKEYKCKVSNKALPAPIEKTISKAKGQPREPQVYTLPPSRDNLTKNQVSLTCLVHGFYPSDIAVEWESNGQPENNYKTTPPVLDSDGSFFLYSKLTVDKSRWQQGNVFSCSVMHEALHNHYTQKSLSLSPGK
notes: also called A210 CH3B chain (yeast); not shown: flag-tag

- binding result [4]: binds
B4: secreted FcCH3B, A241 (E357N), from yeast (other)
chain: TSPPSPAPELLGGPSVFLFPPKPKDTLMISRTPEVTCVVVDVSHEDPEVKFNWYVDGVEVHNAKTKPREEQYQSTYRVVSVLTVLHQDWLNGKEYKCKVSNKALPAPIEKTISKAKGQPREPQVYTLPPSRDNLTKNQVSLTCLVKGFYPSDIAVEWESNGQPENNYKTTPPVLDSDGSFFLYSKLTVDKSRWQQGNVFSCSVMHEALHNHYTQKSLSLSPGK
notes: also called A241 CH3B chain (yeast); not shown: flag-tag

- binding result [5]: binds
B5: secreted FcCH3B, A216 (E357N), from yeast (other)
chain: TSPPSPAPELLGGPSVFLFPPKPKDTLMISRTPEVTCVVVDVSHEDPEVKFNWYVDGVEVHNAKTKPREEQYQSTYRVVSVLTVLHQDWLNGKEYKCKVSNKALPAPIEKTISKAKGQPREPQVYTLPPSRDNLTKNQVSLTCLVKGFYPSDIAVEWESNGQPENNYKTTPPVLDSDGSFFLYSKLTVDKSRWQQGNVFSCSVMHEALHNHYTQKSLSLSPGK
notes: also called A216 CH3B chain (yeast); not shown: flag-tag

- binding result [6]: binds
B6: secreted FcCH3B, B168 (K392G/K409M/D399V/F405T), from yeast (other)
chain: TSPPSPAPELLGGPSVFLFPPKPKDTLMISRTPEVTCVVVDVSHEDPEVKFNWYVDGVEVHNAKTKPREEQYQSTYRVVSVLTVLHQDWLNGKEYKCKVSNKALPAPIEKTISKAKGQPREPQVYTLPPSRDELTKNQVSLTCLVKGFYPSDIAVEWESNGQPENNYGTTPPVLVSDGSFTLYSMLTVDKSRWQQGNVFSCSVMHEALHNHYTQKSLSLSPGK
notes: also called B168 CH3B chain (yeast); not shown: flag-tag

Reference: patent publication US20180346600A1 (AJOU UNIVERSITY INDUSTRY ACADEMIC COOPERATION FOUNDATION, published 2018)
